This passage reports c-Met degradation (total c-Met ELISA, 24 h), A549 cells and reduction of c-Met expression (total c-Met ELISA, 24 h), NCI-H2170 cells results from patent US20140302035A1.

The target in one assay is c-Met (human) (UniProt P08581). In words: cell-based or functional assay.
The target of another assay is c-Met (human), P08581. In words: cell-based or functional assay.
c-Met (human), P08581, sequence (P08581 25-1390): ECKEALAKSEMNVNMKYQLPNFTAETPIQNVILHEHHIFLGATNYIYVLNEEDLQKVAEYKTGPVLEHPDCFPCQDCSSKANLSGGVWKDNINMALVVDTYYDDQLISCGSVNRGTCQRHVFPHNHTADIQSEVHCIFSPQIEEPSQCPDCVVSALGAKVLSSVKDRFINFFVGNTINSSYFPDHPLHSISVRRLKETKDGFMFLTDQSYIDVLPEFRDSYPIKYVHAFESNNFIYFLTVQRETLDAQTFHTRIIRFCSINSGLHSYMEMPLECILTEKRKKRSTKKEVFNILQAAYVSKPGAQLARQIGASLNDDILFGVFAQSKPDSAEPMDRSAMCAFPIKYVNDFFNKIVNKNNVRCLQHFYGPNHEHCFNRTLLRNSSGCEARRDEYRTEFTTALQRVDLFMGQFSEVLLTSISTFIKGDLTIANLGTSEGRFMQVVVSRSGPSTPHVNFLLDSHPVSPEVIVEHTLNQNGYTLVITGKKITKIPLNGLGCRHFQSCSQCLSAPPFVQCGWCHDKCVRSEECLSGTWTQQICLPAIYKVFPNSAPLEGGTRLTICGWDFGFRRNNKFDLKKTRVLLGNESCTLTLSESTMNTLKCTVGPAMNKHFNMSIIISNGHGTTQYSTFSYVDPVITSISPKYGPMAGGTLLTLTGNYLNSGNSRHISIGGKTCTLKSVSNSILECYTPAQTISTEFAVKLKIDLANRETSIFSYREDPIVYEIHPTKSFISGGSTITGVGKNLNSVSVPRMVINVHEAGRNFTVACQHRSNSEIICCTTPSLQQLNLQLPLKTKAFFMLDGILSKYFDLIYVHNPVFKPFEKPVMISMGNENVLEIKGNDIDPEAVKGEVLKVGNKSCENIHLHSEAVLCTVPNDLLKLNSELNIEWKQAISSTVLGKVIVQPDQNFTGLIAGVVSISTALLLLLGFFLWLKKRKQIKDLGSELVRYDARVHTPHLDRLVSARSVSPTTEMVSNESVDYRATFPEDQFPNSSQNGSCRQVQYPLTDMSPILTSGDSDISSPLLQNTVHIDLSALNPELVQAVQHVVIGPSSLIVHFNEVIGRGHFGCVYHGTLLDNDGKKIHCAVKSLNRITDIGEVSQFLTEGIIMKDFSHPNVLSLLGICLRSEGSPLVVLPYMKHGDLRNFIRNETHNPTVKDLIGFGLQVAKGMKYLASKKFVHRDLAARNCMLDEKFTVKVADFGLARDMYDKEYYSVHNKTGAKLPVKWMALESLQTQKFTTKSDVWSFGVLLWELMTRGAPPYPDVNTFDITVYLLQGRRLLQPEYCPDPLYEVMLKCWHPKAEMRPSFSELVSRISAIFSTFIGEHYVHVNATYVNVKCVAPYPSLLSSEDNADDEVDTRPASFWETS

c-Met (human), sequence (P08581 25-1390): as above

B1: OA-5D5 (antibody, part only; not given: constant regions and Fc knob chain, V domains shown, not shown: another chain or arm of the molecule; a dimerising Fc or GST)
VH: EVQLVESGGGLVQPGGSLRLSCAASGYTFTSYWLHWVRQAPGKGLEWVGMIDPSNSDTRFNPNFKDRFTISADTSKNTAYLQMNSLRAEDTAVYYCATYRSYVTPLDYWGQGTLVTVSS
VL: DIQMTQSPSSLSASVGDRVTITCKSSQSLLYTSSQKNYLAWYQQKPGKAPKLLIYWASTRESGVPSRFSGSGSGTDFTLTISSLQPEDFATYYCQQYYAYPWTFGQGTKVEIK
Turning to B1, in the assay with c-Met (human), the c-Met degradation (total c-Met ELISA, 24 h), A549 cells is less than 20% and the reduction of c-Met expression (total c-Met ELISA, 24 h), NCI-H2170 cells came to 30%.

B2: Ab#5 (bispecific antibody, human IgG1, kappa)
heavy: QLQLQESGPGLVKPSETLSLTCTVSGGSISSSVYYWSWIRQPPGKGLEWIGVIYPSGNTYYSPSLKSRVTISVDTSKNQFSLKLSSVTAADTAVYYCARTIYDLFDIWGQGTMVTVSSASTKGPSVFPLAPSSKSTSGGTAALGCLVKDYFPEPVTVSWNSGALTSGVHTFPAVLQSSGLYSLSSVVTVPSSSLGTQTYICNVNHKPSNTKVDKKVEPKSCDKTHTCPSCPAPEFLGGPSVFLFPPKPKDTLMISRTPEVTCVVVDVSQEDPEVQFNWYVDGVEVHNAKTKPREEQFNSKYRVVSVLTVLHQDWLNGKEYKCKVSNKGLPSSIEKTISKAKGQPREPQVYTLPPSREEMTKNQVSLSCAVKGFYPSDIAVEWESNGQPENNYKTTPPVLDSDGSFFLVSKLTVDKSRWQQGNVFSCSVMHEALHNHYTQKSLSLSKSCDKTGGGGSGGGGSGGGGSGGGGSGGGGSGGGGSGGGGSGGGGSCPSCPAPEFLGGPSVFLFPPKPKDTLMISRTPEVTCVVVDVSQEDPEVQFNWYVDGVEVHNAKTKPREEQFNSDYRVVSVLTVLHQDWLNGKEYKCKVSNKGLPSSIEKTISKAKGQPREPQVYTLPPSREEMTKNQVSLWCLVKGFYPSDIAVEWESNGQPENNYKTTPPVLDSDGSFFLYSKLTVDKSRWQQGNVFSCSVMHEALHNHYTQKSLSLSGECGGGGSGGGGSDIVMTQSPLSLPVTPGEPASISCRSTKSLLHSNGITYLYWYLQKPGQSPQLLIYQMSNLASGVPDRFSSSGSGTDFTLKISRVEAEDEGVYYCAQNLEIPRTFGGGTKLEIKRTGGGGSGGGGSGGGGSGGGGSQVQLVQSGAEVKKPGESVKISCKASGYTFTNYGMNWVRQAPGQGLKWMGWINTYTGESTYADDFKGRFAFSLDTSASTAYLQLSSLRSEDTAVYFCARFAIKGDYWGQGTLVTVSS
light: DIQMTQSPSSVSASVGDRVTITCRASQGISSWLAWYQQKPGKAPKLLIYAASSLQSGVPSRFSGSGSGTDFTLTISSLQPEDFATYYCLQANSFPPTFGGGTKVEIKRTVAAPSVFIFPPSDEQLKSGTASVVCLLNNFYPREAKVQWKVDNALQSGNSQESVTEQDSKDSTYSLSSTLTLSKADYEKHKVYACEVTHQGLSSPVTKSFNRGEC
Regarding B2, in the assay with c-Met (human), P08581, the c-Met degradation (total c-Met ELISA, 24 h), A549 cells is less than 20% and the reduction of c-Met expression (total c-Met ELISA, 24 h), NCI-H2170 cells is 65%.
